Laboratory results taken from the Human Domainome abundance scans (Beltran et al. 2025).
± gives the uncertainty stated by the source.

B1: Storkhead-box protein 2, residues 64 to 141; numbered along this chain, Q9P2F5 (parent)
chain: SPISQSQFIPLGEILCLAISAMNSARKPVTQEALMEHLTTCFPGVPTPSQEILRHTLNTLVRERKIYPTPDGYFIVTP

Variants of: B1
Assay: abundance fitness (aPCA) (normalised: wild type 0, dead -1); higher = more abundant; growth selection in yeast, the domain comes from the species named
Details: Homo sapiens

Point of comparison: SPISQSQFIPLGEILCLAISAMNSARKPVTQEGLMEHLTTCFPGVPTPSQEILRHTLNTLVRERKIYPTPDGYFIVTP, abundance fitness -0.038 ± 0.035. Against it:
- SPISQSQFIPLGEILCLAISAMNSARKPVTQEQLMEHLTTCFPGVPTPSQEILRHTLNTLVRERKIYPTPDGYFIVTP — within error, 0.009 ± 0.061
- SPISQSQFIPLGEILCLAISAMNSARKPVTQEWLMEHLTTCFPGVPTPSQEILRHTLNTLVRERKIYPTPDGYFIVTP — lower, -0.279 ± 0.05
- SPISQSQFIPLGEILCLAISAMNSARKPVTQEYLMEHLTTCFPGVPTPSQEILRHTLNTLVRERKIYPTPDGYFIVTP — within error, -0.167 ± 0.11
- SPISQSQFIPLGEILCLAISAMNSARKPVTQESLMEHLTTCFPGVPTPSQEILRHTLNTLVRERKIYPTPDGYFIVTP — within error, -0.001 ± 0.041
- SPISQSQFIPLGEILCLAISAMNSARKPVTQERLMEHLTTCFPGVPTPSQEILRHTLNTLVRERKIYPTPDGYFIVTP — within error, -0.045 ± 0.037
- SPISQSQFIPLGEILCLAISAMNSARKPVTQECLMEHLTTCFPGVPTPSQEILRHTLNTLVRERKIYPTPDGYFIVTP — lower, -0.188 ± 0.075
- SPISQSQFIPLGEILCLAISAMNSARKPVTQELLMEHLTTCFPGVPTPSQEILRHTLNTLVRERKIYPTPDGYFIVTP — within error, -0.061 ± 0.032
- SPISQSQFIPLGEILCLAISAMNSARKPVTQETLMEHLTTCFPGVPTPSQEILRHTLNTLVRERKIYPTPDGYFIVTP — within error, -0.118 ± 0.062
- SPISQSQFIPLGEILCLAISAMNSARKPVTQEPLMEHLTTCFPGVPTPSQEILRHTLNTLVRERKIYPTPDGYFIVTP — lower, -0.339 ± 0.043
- SPISQSQFIPLGEILCLAISAMNSARKPVTQEILMEHLTTCFPGVPTPSQEILRHTLNTLVRERKIYPTPDGYFIVTP — lower, -0.274 ± 0.087
- SPISQSQFIPLGEILCLAISAMNSARKPVTQEELMEHLTTCFPGVPTPSQEILRHTLNTLVRERKIYPTPDGYFIVTP — within error, -0.067 ± 0.047
- SPISQSQFIPLGEILCLAISAMNSARKPVTQEKLMEHLTTCFPGVPTPSQEILRHTLNTLVRERKIYPTPDGYFIVTP — within error, -0.028 ± 0.074
- SPISQSQFIPLGEILCLAISAMNSARKPVTQEHLMEHLTTCFPGVPTPSQEILRHTLNTLVRERKIYPTPDGYFIVTP — within error, 0.019 ± 0.079
- SPISQSQFIPLGEILCLAISAMNSARKPVTQENLMEHLTTCFPGVPTPSQEILRHTLNTLVRERKIYPTPDGYFIVTP — within error, 0.1 ± 0.14
- SPISQSQFIPLGEILCLAISAMNSARKPVTQEDLMEHLTTCFPGVPTPSQEILRHTLNTLVRERKIYPTPDGYFIVTP — within error, -0.154 ± 0.082
- SPISQSQFIPLGEILCLAISAMNSARKPVTQEALWEHLTTCFPGVPTPSQEILRHTLNTLVRERKIYPTPDGYFIVTP — within error, -0.124 ± 0.067
- SPISQSQFIPLGEILCLAISAMNSARKPVTQEALSEHLTTCFPGVPTPSQEILRHTLNTLVRERKIYPTPDGYFIVTP — within error, 0.005 ± 0.073
- SPISQSQFIPLGEILCLAISAMNSARKPVTQEALAEHLTTCFPGVPTPSQEILRHTLNTLVRERKIYPTPDGYFIVTP — within error, 0.02 ± 0.071
- SPISQSQFIPLGEILCLAISAMNSARKPVTQEALDEHLTTCFPGVPTPSQEILRHTLNTLVRERKIYPTPDGYFIVTP — within error, -0.191 ± 0.22
- SPISQSQFIPLGEILCLAISAMNSARKPVTQEALLEHLTTCFPGVPTPSQEILRHTLNTLVRERKIYPTPDGYFIVTP — within error, -0.058 ± 0.062
- SPISQSQFIPLGEILCLAISAMNSARKPVTQEALPEHLTTCFPGVPTPSQEILRHTLNTLVRERKIYPTPDGYFIVTP — lower, -0.361 ± 0.075
- SPISQSQFIPLGEILCLAISAMNSARKPVTQEALTEHLTTCFPGVPTPSQEILRHTLNTLVRERKIYPTPDGYFIVTP — within error, -0.024 ± 0.08
- SPISQSQFIPLGEILCLAISAMNSARKPVTQEALNEHLTTCFPGVPTPSQEILRHTLNTLVRERKIYPTPDGYFIVTP — within error, -0.249 ± 0.34
- SPISQSQFIPLGEILCLAISAMNSARKPVTQEALYEHLTTCFPGVPTPSQEILRHTLNTLVRERKIYPTPDGYFIVTP — within error, -0.164 ± 0.14
- SPISQSQFIPLGEILCLAISAMNSARKPVTQEALIEHLTTCFPGVPTPSQEILRHTLNTLVRERKIYPTPDGYFIVTP — within error, 0.044 ± 0.092
- SPISQSQFIPLGEILCLAISAMNSARKPVTQEALHEHLTTCFPGVPTPSQEILRHTLNTLVRERKIYPTPDGYFIVTP — within error, 0.018 ± 0.098
- SPISQSQFIPLGEILCLAISAMNSARKPVTQEALCEHLTTCFPGVPTPSQEILRHTLNTLVRERKIYPTPDGYFIVTP — the same, -0.038 ± 0.091
- SPISQSQFIPLGEILCLAISAMNSARKPVTQEALVEHLTTCFPGVPTPSQEILRHTLNTLVRERKIYPTPDGYFIVTP — within error, -0.092 ± 0.052
- SPISQSQFIPLGEILCLAISAMNSARKPVTQEALREHLTTCFPGVPTPSQEILRHTLNTLVRERKIYPTPDGYFIVTP — within error, -0.103 ± 0.054
- SPISQSQFIPLGEILCLAISAMNSARKPVTQEALFEHLTTCFPGVPTPSQEILRHTLNTLVRERKIYPTPDGYFIVTP — within error, 0.04 ± 0.071
- SPISQSQFIPLGEILCLAISAMNSARKPVTQEALGEHLTTCFPGVPTPSQEILRHTLNTLVRERKIYPTPDGYFIVTP — within error, -0.049 ± 0.049
- SPISQSQFIPLGEILCLAISAMNSARKPVTQEALQEHLTTCFPGVPTPSQEILRHTLNTLVRERKIYPTPDGYFIVTP — within error, -0.063 ± 0.092
- SPISQSQFIPLGEILCLAISAMNSARKPVTQEALEEHLTTCFPGVPTPSQEILRHTLNTLVRERKIYPTPDGYFIVTP — within error, -0.113 ± 0.12
- SPISQSQFIPLGEILCLAISAMNSARKPVTQEALKEHLTTCFPGVPTPSQEILRHTLNTLVRERKIYPTPDGYFIVTP — lower, -0.299 ± 0.14
